Measured values as given in the Immune Epitope Database (IEDB).

Assays:
HLA-A*02:01 [1] = experiment: IEDB peptide-MHC binding, purified MHC/competitive/radioactivity; ≥ and ≤ were set here for values at or beyond the usual limits of such assays
HLA-A*01:01 = experiment: IEDB peptide-MHC binding, purified MHC/direct/fluorescence; filed as Kd, often an IC50 or EC50 that approximates it; ≥ and ≤ were set here for values at or beyond the usual limits of such assays
HLA-A*03:01 = experiment: as above
HLA-A*11:01 [2] = experiment: as above
HLA-A*31:01 = experiment: as above
HLA-A*69:01 = experiment: as above
HLA-B*15:01 = experiment: as above
HLA-B*27:05 = experiment: as above
HLA-B*39:01 = experiment: as above; details: source organism: Mycobacterium tuberculosis str. Haarlem
HLA-B*40:01 = experiment: as above; details: source organism: Mycobacterium tuberculosis
HLA-B*46:01 = experiment: as above; details: source organism: Mycobacterium tuberculosis
HLA-B*48:01 = experiment: as above; details: source organism: Mycobacterium tuberculosis
HLA-B*51:01 = experiment: as above; details: source organism: Mycobacterium tuberculosis
HLA-B*57:01 = experiment: as above
HLA-B*58:01 = experiment: as above
HLA-A*02:01 [3] = experiment: IEDB peptide-MHC binding, purified MHC/competitive/fluorescence; filed as Kd, often an IC50 or EC50 that approximates it; ≥ and ≤ were set here for values at or beyond the usual limits of such assays; details: source organism: Mycobacterium tuberculosis variant bovis BCG str. Pasteur 1173P2
HLA-A*02:06 = experiment: as above
HLA-A*30:01 = experiment: as above; details: source organism: Mycobacterium tuberculosis variant bovis BCG str. Pasteur 1173P2
HLA-B*08:01 = experiment: as above
HLA-B*15:17 = experiment: as above
HLA-B*15:42 = experiment: as above
HLA-B*45:06 = experiment: as above
HLA-B*83:01 = experiment: as above
HLA-A*02:01 [4] = experiment: IEDB peptide-MHC binding, purified MHC/direct/fluorescence; filed as Kd, often an IC50 or EC50 that approximates it; ≥ and ≤ were set here for values at or beyond the usual limits of such assays
HLA-A*24:02 = experiment: as above; details: source organism: Influenza A virus (A/quail/Hong Kong/FY298/00(H9N2))
HLA-A*24:03 [5] = experiment: as above; details: source organism: Influenza A virus (A/quail/Hong Kong/FY298/00(H9N2))
HLA-A*26:01 = experiment: as above; details: source organism: Influenza A virus(A/swine/Henan/5/2004(H9N2))
HLA-B*07:02 = experiment: as above
HLA-B*08:02 = experiment: as above; details: source organism: Influenza A virus(A/swine/Henan/5/2004(H9N2))
HLA-B*18:01 = experiment: as above; details: source organism: Influenza A virus (A/quail/Hong Kong/FY298/00(H9N2))
HLA-C*07:02 = experiment: as above; details: source organism: Influenza A virus (A/Fort Monmouth/1/1947-mouse adapted(H1N1))
HLA-A*68:02 = experiment: IEDB peptide-MHC binding, purified MHC/competitive/fluorescence; filed as Kd, often an IC50 or EC50 that approximates it; ≥ and ≤ were set here for values at or beyond the usual limits of such assays; details: source organism: Influenza A virus (A/Fort Monmouth/1/1947-mouse adapted(H1N1))
HLA-A*11:01 [6] = experiment: as above; details: source organism: Yersinia pestis Nepal516
HLA-C*03:03 = experiment: IEDB peptide-MHC binding, purified MHC/direct/fluorescence; filed as Kd, often an IC50 or EC50 that approximates it; ≥ and ≤ were set here for values at or beyond the usual limits of such assays; details: source organism: Homo sapiens
HLA-C*06:02 = experiment: as above
HLA-A*32:07 = experiment: IEDB peptide-MHC binding, purified MHC/competitive/fluorescence; filed as Kd, often an IC50 or EC50 that approximates it; ≥ and ≤ were set here for values at or beyond the usual limits of such assays
HLA-C*15:02 = experiment: IEDB peptide-MHC binding, purified MHC/direct/fluorescence; filed as Kd, often an IC50 or EC50 that approximates it; ≥ and ≤ were set here for values at or beyond the usual limits of such assays
HLA-A*24:03 [7] = experiment: IEDB peptide-MHC binding, purified MHC/competitive/fluorescence; filed as Kd, often an IC50 or EC50 that approximates it; ≥ and ≤ were set here for values at or beyond the usual limits of such assays; details: source organism: Bacillus cereus G9241
HLA-C*14:02 [8] = experiment: as above; details: source organism: Bacillus cereus G9241
HLA-C*14:02 [9] = experiment: IEDB peptide-MHC binding, purified MHC/direct/fluorescence; filed as Kd, often an IC50 or EC50 that approximates it; ≥ and ≤ were set here for values at or beyond the usual limits of such assays; details: source organism: Yellow fever virus
[10] = source organism: Mycobacterium tuberculosis
[11] = source organism: Mycobacterium tuberculosis variant bovis BCG str. Pasteur 1173P2
[12] = source organism: Influenza A virus (A/quail/Hong Kong/FY298/00(H9N2))
[13] = source organism: Influenza A virus (A/Fort Monmouth/1/1947-mouse adapted(H1N1))
[14] = source organism: Bacillus cereus G9241
[15] = source organism: Yellow fever virus

In the case of IMDKNIILKA, the IC50 (HLA-A*02:01 [1]; source organism: Influenza A virus (A/Puerto Rico/8/1934(H1N1))) is reported as 43 µM.
Work on RPRLHSISF yielded a Kd (HLA-A*01:01; [10]) of 1.31 µM, a Kd (HLA-A*03:01; [10]) of at least 20 µM and a Kd (HLA-A*11:01 [2]; [10]) of at least 20 µM. For the same sequence, the Kd (HLA-A*31:01; [10]) was at least 20 µM, the Kd (HLA-A*69:01; [10]) was at least 20 µM and the Kd (HLA-B*15:01; [10]) was 0.079 µM. It also gave a Kd (HLA-B*27:05; [10]) of at least 20 µM, a Kd (HLA-B*39:01) of at least 20 µM and a Kd (HLA-B*40:01) of at least 20 µM. The Kd (HLA-B*46:01) was at least 20 µM, the Kd (HLA-B*48:01) was at least 20 µM and the Kd (HLA-B*51:01) was at least 20 µM. For the same sequence, the Kd (HLA-B*57:01; [10]) was at least 20 µM, the Kd (HLA-B*58:01; [10]) was at least 20 µM and the Kd (HLA-A*02:01 [3]) was at least 20 µM. For the same sequence, the Kd (HLA-A*02:06; [11]) was at least 20 µM, the Kd (HLA-A*30:01) was at least 20 µM and the Kd (HLA-B*08:01; [11]) was 0.0159 µM. The Kd (HLA-B*15:17; [11]) was at least 20 µM, the Kd (HLA-B*15:42; [11]) was at least 5 µM and the Kd (HLA-B*45:06; [11]) was at least 5 µM. It also gave a Kd (HLA-B*83:01; [11]) of 0.045 µM.
ALSRKVAEL showed an IC50 (HLA-A*02:01 [1]; source organism: Homo sapiens) of 0.1 µM.
For SYLIRALTL, the Kd (HLA-A*01:01; [12]) was at least 20 µM, the Kd (HLA-A*02:01 [4]; [12]) was at least 20 µM and the Kd (HLA-A*03:01; [12]) was at least 20 µM. It also gave a Kd (HLA-A*11:01 [2]; [12]) of at least 20 µM, a Kd (HLA-A*24:02) of 0.0039 µM and a Kd (HLA-A*24:03 [5]) of at most 0.001 µM. For the same sequence, the Kd (HLA-A*26:01) was at least 20 µM, the Kd (HLA-A*31:01; [12]) was at least 20 µM and the Kd (HLA-B*07:02; [12]) was at least 20 µM. It also gave a Kd (HLA-B*08:02) of at least 20 µM, a Kd (HLA-B*15:01; [12]) of at least 20 µM and a Kd (HLA-B*18:01) of at least 20 µM. For the same sequence, the Kd (HLA-B*27:05; [12]) was at least 20 µM, the Kd (HLA-B*57:01; [12]) was at least 20 µM and the Kd (HLA-B*58:01; [12]) was at least 20 µM. The Kd (HLA-C*07:02) was 0.055 µM, the Kd (HLA-A*02:06; [13]) was 1.41 µM and the Kd (HLA-A*68:02) was 1.19 µM. For the same sequence, the Kd (HLA-B*08:01; [13]) was 1.72 µM and the Kd (HLA-B*15:17; [13]) was 0.196 µM.
For RTYSGPMNKV, the IC50 (HLA-A*02:01 [1]; source organism: Homo sapiens) was 0.793 µM.
RTMEVFTMY was tested, and the Kd (HLA-A*11:01 [6]) was 0.0033 µM.
RVMAPRALL was tested, and the Kd (HLA-A*02:01 [4]; source organism: Homo sapiens) was 15.6 µM, the Kd (HLA-A*03:01; source organism: Homo sapiens) was 0.775 µM and the Kd (HLA-A*11:01 [2]; source organism: Homo sapiens) was 1 µM. It also gave a Kd (HLA-A*31:01; source organism: Homo sapiens) of 0.143 µM, a Kd (HLA-A*69:01; source organism: Homo sapiens) of 0.13 µM and a Kd (HLA-B*07:02; source organism: Homo sapiens) of 0.232 µM. The Kd (HLA-B*15:01; source organism: Homo sapiens) was 0.103 µM, the Kd (HLA-B*27:05; source organism: Homo sapiens) was 2.17 µM and the Kd (HLA-B*58:01; source organism: Homo sapiens) was 0.304 µM. It also gave a Kd (HLA-C*03:03) of 0.113 µM, a Kd (HLA-C*06:02; source organism: Homo sapiens) of 0.049 µM and a Kd (HLA-A*32:07; source organism: Homo sapiens) of 0.0219 µM. The Kd (HLA-B*15:42; source organism: Homo sapiens) was at least 20 µM, the Kd (HLA-B*45:06; source organism: Homo sapiens) was at least 5 µM and the Kd (HLA-B*83:01; source organism: Homo sapiens) was 9.34 µM.
YYKKTFSAL was tested, and the Kd (HLA-C*06:02; [14]) was 1.66 µM, the Kd (HLA-C*15:02; [14]) was at least 20 µM and the Kd (HLA-A*24:03 [7]) was at most 0.0001 µM. The Kd (HLA-A*32:07; [14]) was 0.029 µM, the Kd (HLA-B*15:42; [14]) was at least 5 µM and the Kd (HLA-B*45:06; [14]) was at least 5 µM. For the same sequence, the Kd (HLA-B*83:01; [14]) was at least 5 µM and the Kd (HLA-C*14:02 [8]) was 0.0004 µM.
In the case of RWFVRNPFF, the Kd (HLA-C*06:02; [15]) is reported as at least 20 µM, the Kd (HLA-C*14:02 [9]) is reported as 0.278 µM and the Kd (HLA-C*15:02; [15]) is reported as at least 20 µM. For the same sequence, the Kd (HLA-B*15:42; [15]) was at least 5 µM, the Kd (HLA-B*45:06; [15]) was at least 5 µM and the Kd (HLA-B*83:01; [15]) was at least 5 µM.
CISSCNPNP showed an IC50 (HLA-A*02:01 [1]; source organism: Homo sapiens) of at least 20 µM.
